assay: soluble on expression in E. coli; label from the status in PepcDB or PDB records

Sequence | soluble on expression in E. coli
MSKPIQMERGVKYRDADKMALIPIKNMPTEQKEVLRKPEWMKIKLPADSQRIQDIKAAMRKNNLHSVCEEASCPNLAECFNHGTATFMILGAICTRRCPFCDVAHGRPNAPEAEEPKKLAQTIHDMKLKYVVITSVDRDDLRDGGAQHFADCNREIRALNPHIKIETLVPDFRGRMEVALEALKDNPPDVFNHNLETAPRLYRKVRPGANYKWSLELLRQFKEQHPHVPTKSGLMMGLGETKEEIVEVLKDLRAHGVTMLTLGQYLAPSRHHLPVERYVPPAEFDELKEVALELGFTHAACGPFVRSSYHADLQAKGLEVK | not soluble
MSKSEKQQLAPWVEKYRPKVLADIVGNENIVERLKVIGHEGNVPNIVLSGPPGCGKTTSVWALARELLGDKVKEAVLELNASDERGIDVVRHRIKTFAQTKVTLPEGRHKIIILDEADSMTDGAQQALRRTMEMYTKTTRFALACNQSEKIIEPIQSRCALLRYTKLSPVQLLTRVKEVAKAEKVNYDDGGLEAILFTAQGDMRQALNNLQATVNAYELVNKENVLKVCDEPHPDLMIKMLHYCTDRKFFEASKIIHEFHRLGFSSDDIVSTLFRVVKTVELSKNVSEQLRMEYIRQIAMCHMRIVQGLTSKLQLSRLIADLCRVSAAATATSA | not soluble
MSKSTRSRRKKKSKGGDRSERKTNKSERKKKGAKSDIGKKKKKNETVSKDQTNTGVSTGAEGVEKKEKEQWSGDETAKKLVASGAFNTSTITSGFKELSNPKPSADMCSIFKNNPKKSRAPDWPIADNKLIKLSHAPGNFICAAKVDVPEFNRTMIVTQIPDVTVSANIEDFWRMIFQEEIVSIVIAVMPLECSVTLQQLFPLLSGTFSNHGKMFLNNKKVDSAVAMTAYTLEVLPDGCSNSLLSTVYHLHNWKQKQGLENVGELVTTVEKVLKTNENTVLMSMNGIGRAGTMLTLFTSMLSVQKSKEVNPKEILIKLRGERSGLVENADQFNTVHRAMALWFKNKCSDEEVQKKVVEFAPNLTTEAVERSSYEYLNSQHFLYPILLESMLHQHQMKQVLLKKVERSMERSKL | not soluble
MSKTRMEKLKTLKTIAETLNQGHDIKATLDEVLKELLSLTNLQSGWIFLIEEDGSYTLAADAYLPPALSRKEKVLMCEGECYCLTKFNNGGLRKAANIMNCKRIESAENLHCFDTEGITHHATVPLEDGDRRFGLLNVAAAGKTMFDEEELHLLESVAFQIGTAIQRMRLSEYQQK | not soluble
MSKVALIRCESYDYDAVKSAVKRGLDLIGGPHRFAAPNEKILLKPNLLSADPPERCSTTHPSVFKAVAEIFMEAGITNLSYGDSPGIHKPITAARKNGIEKAANELGIKLADFLEGKEVFFENAIQNKKFIIANGVLESDGIISLPKLKTHGFARMTGCVKNQFGCIPGPLKGEFHVRIPSIIDFSKMLVDLNVYLKPRLFVMDGIIAMEGNGPRGGTPRKINAILLSEDPIALDATVCRMINLNPEFVPTIVFGKEAGLGTYDENEIEILGDDIQSFITYDFDVRREPVKPFKPGGAIQFFRNFIVPKPYILKNKCIKCGVCVNACPVKPKAVDWHNGNKKEPPTYIYKRCIRCYCCQELCPESAIHLKVPFIRKFFYNPK | not soluble
MSLADERDQLKSIQADIAAKERAVRQKQQQRASLLAQLKKQEEAISEATRKLRETQNTLNQLNKQIDEMNASIAKLEQQKAAQERSLAAQLDAAFRQGEHTGIQLILSGEESQRGQRLQAYFGYLNQARQETIAQLKQTREEVAMQRAELEEKQSEQQTLLYEQRAQQAKLTQALSERKKTLAGLESSIQQGQQQLSELRANESRLRNSIARAEAAAKARAEREAREAQAVRDRQKEATRKGTTYKPTESEKSLMSRTGGLGAPRGQAFWPVRGPTLHRYGEQLQGELRWKGMVIGASEGTEVKAIADGRVILADWLQGYGLVVVVEHGKGDMSLYGYNQSALVSVGSQVRAGQPIALVGSSGGQGRPSLYFEIRRQGQAVNPQPWLGREGHHHHHH | soluble
MSLADQAIHWLFPTPVLQADLTPTADVALAMDQQLALFDREVFSHPEFSNRNNLTGDLLGKAGLDQLHRLEAFQWLNQQLAVHVDAFLRELLGPNHALEVHIQKAWPVVCARQGGTIEPHTHRNAQLSAVFYVRTEPDNPSGELEFQAADDYFSHVMAIPYRDAAVSGGVFAPQQHRLLLFPSDLRHQVTPYEGASPRYSVSYDLAITTAPGHGREMRMPHPMDWVPLCKPGPAEGHHHHHH | soluble
MSLAEKIKVLIVDDQVTSRLLLGDALQQLGFKQITAAGDGEQGMKIMAQNPHHLVISDFNMPKMDGLGLLQAVRANPATKKAAFIILTAQGDRALVQKAAALGANNVLAKPFTIEKMKAAIEAVFGALK | soluble
MSLAEPKWLQDLKEEDYIKEDFDATGKSRYTVEGIDKNDPDWLNKAAKKVHAAEGDDYVKLDAGLLTVNQINWMLRRAFGELTYVDDNNQFLWYNRPTDPNKKMLAKRTPDQVGDTMGAVHPDIRNVIPEAKKVIYALRNKIDGHDEVKMPVPNGNRHKLILHDYKRIEDDEGNYVGTYEWVQDIYPFVKYFCETTGQKLVDDPDATTGATYKRDEVDTGTGASKHEEHVEKKQEETDTSSGASEYEGHHHHHH | soluble
MSLAERKPIESWLTDMDGVLIHEGVPIPGADAFIKKLRESGKPFLVLTNNSIYTPRDLHARLRRMGLDVPVENIWTSALATAQFLGDQRPDGTAYVIGEAGLTTALHDIGYVLTDHEPDYVVLGETRTYSFEAMTQAVRLINKGARFICTNPDETGPSAEGPLPATGAVAALITKATGKKPYFAGKPNPLMMRTGLNTLGAHSETSAMIGDRMDTDVLAGMEAGMQTFLVLTGLTGPDQVENYPYRPSKVVDSIADLVDWIEGHHHHHH | soluble
MSLAFNVAFRLDAGAEIGLGHLMRCLAIADRLRAAGAECHFLCHDLPAHLLPLLHAHHHHSLTTQDDAGPLPSLQPDWLVFDHYQIDHVVEQELAVHCDQLLVIDDLADRPHYCQLLLDQGPLRTAADYQPLIPADCRLLLGTDYALLRPAYRQLARQQTSQWQGGLICFGGADPAGACLTTLNSLACLPWPRTIQWTLVAGGANPFWPELEQRVAELPELKITLLRQSDQMAQLMNQHDFTIGAAGGMTWERACLGLPTLAVPIVDNQEGHHHHHH | not soluble
MSLAGGYVIDTTENTFQAMVQTSATFPILLFLWVPTDDRLFAMARALGDAVNKLNGQIQLSRIDIASNPSIAQAFQIQGAPALFALIGGRPMPILQGLPSDEELQQITDVVVPKLIAAAQQAGVTGTAPYSGDPDSDAANSASAGSVQDQVPPEHQEAYMLAQQGDYAGAAAAYEKVLEADPNDTRAARERAKALLLARSANADVRVVRAAAADKPDDVDAQLAVADIDMIGGQIQDAFDRLLDFVAAGHKADIEPVRQRLLEYFTIPEPTDERLKRARRRLATLMYEGHHHHHH | soluble
MSLAGTFAIAPTPFHDDGKIDDVSIDRLTDFYAEVGCEGVTVLGILGEAPKLDAAEAEAVATRFIKRAKSMQVIVGVSAPGFAAMRRLARLSMDAGAAGVMIAPPPSLRTDEQITTYFRQATEAIGDDVPWVLQDYPLTLSVVMTPKVIRQIVMDSASCVMLKHEDWPGLEKITTLRGFQKDGSLRPLSILCGNGGLFLDFEMERGADGAMTGYCFPDMLVDVVKLSKAGQRDLAHNLFDAHLPLIRYEHQQGVGLSVRKYVLKKRGLLSSSAQRKPGASLTDTAREEVDYLLSRLARVEGHHHHHH | not soluble
MSLAGVGGRPPPSVGSVVVADTTMFTDAKLREVLGARSLEEAARIMARILARASRMGLTVYITPSVRAEIERFMLGNGVHPTTIARLMAWVRVKPPTTHELRLPAAMFRRYVETVRARLDKGLRVAEDHVRRALRSRDEEGDIVRSLREKYREYTRKGMLDSVEDVDTLLLALELGAAIVTSDEGLRRAAEDLGLTVLTPVELLEYILALEEEVKSVEEEGHHHHHH | not soluble
MSLAKPTDIRIRDVRISAEHINYRTPIKFGGRVVNDVTLLNVALDVETADGRRGSGFGSMPMGNVWAWPTSTTSGDATLQAMVDIGTAIAEAAPQLDLSGHPLELTAAAHSQYGSIASTIAHKANITEAVPKLATLVAASPVEAAIHDAYGKALGLNSYNVLGADFANTDLASYLSPEFAGEYLDRYTLRTPQPQMPLYHLIGALDPLDQDELQNPVGDGLPETLGDWITADGLTHLKIKLNGDNLDWDVARVAKIDAVAIDAQAKRGCKAWQYSLDFNERCPNVQYILDFLAKLSESSPEALDRVQYIEQPTSRDLRANPENRMHAAAKIKPVVIDESLIDYESLLLAREQGYSGVALKACKGQSEALLMGAAAQKFGMFLCVQDLTCPGASFLHSASLAARMPTIAAIEGNGRQYCPAGNAEWAKRYPSMFDITQGYVGTAVLTEPGLGYEGHHHHHH | not soluble
MSLAKSNDKTVTMYSIGPRLKAFSDWLLKTMAAGNLGVIFPAASREYAPLVEELWRDAAIQATYKRRSELGLLPSVANYFLERAIDVLTPDYEPSDVDILYAEGVTSSSGLACLDFSFPQTASEENLDPSDHHDSLLRYQLIRVPSRGLGENCKWIDMFEDVGMVVFVVSMSDYDQVSEDGTNKMLLTKKLFESIITHPIFENMDFLLILNKYDLLEEKVERVPLARCEWFQDFNPVVSRHRGSNNGNPTLGQLAFHFMAVKFKRFYSSLTGKKLFVSSSKSLDPNSVDSSLKLAMEILKWSEERTNICMSEYSMYSTEGHHHHHH | not soluble
MSLAKYFDPHIHMVSRTTDDYQNMAAAGITGVIEPAFWQGQARTSVGSFIDYFDTLLGWERFRASMFGIHHFCTIGLNPKEANDLSVANEVLEILPRYLVKDGVVAVGEIGYDDITPEEDRFLAAQLELARQFNLPVLVHTPHRDKIGGTKRTLAVIREVGIAENLVIIDHLNELTLPLVLDSDCWRGHSIYPNTKMSEQRMVALLQEYGSEKMVVNSAADWGISDPLKVPKTGQAMLAAGFSEAQVEQVLFHNPVDFFAQSGQLDKQLVSTEGHHHHHH | not soluble
MSLALIVHKYGGTSVGSPERIKNVAKRVAKARAEGHDIVVVVSAMSGETNRLVALAHEMQEHPDPRELDVVLATGEQVTIGLLAMALKDIGVDAKSYTGWQVALKTDTAHTKARIESIDDEKMRADLTAGKVVIVAGFQGISSEGDISTLGRGGSDTSAVALAAALKADECQIYTDVDGVYTTDPRVVPEARRMDTVTFEEMIELASLGSKVLQIRSVEFAGKYKVRLRVLSSLQDGGNGTLITFEEDDNMERAAVTGIAFDKNQARINVRGVPDKPGVAYQILGAVADANIEVDMIIQNVGSEGTTDFSFTVPRGDYKQTLEILSERQDSIGAASIDGDDTVCKVSAVGLGMRSHVGVAAKIFRTLAEEGINIQMISTSEIKVSVLIDEKYMELATRVLHKAFNLGEGHHHHHH | soluble
MSLAMALFQSAPHSLCILRLSAIGDVCNTIAAVQAIQRQWPQTRITWVTGKLEAELIQSLPDIQVIVFDKKLGWRAYTQLWQQLKSERFDALLHMQYAFRASIATLGIKARYKLGFDAARSQDFQTWFTNVKVPSPDKMHVLDGLLAFVEHLGIRDIEPKWSLTCQPDDLTWAEAQFQPEQPRLVVVPGASKAYKNWTAEGYAAVIEHAQQQGWQVILAGSPAQVERDLAAQVEQALAHPVLNLVGKSTLQQMLALLAKADLVIAPDTGPAHMANAMHTPIIGLYAHHNPERTGPYHYRHYVVSAYQEALLAETGKMPQQVDWRTRVKDPNAMQRITAQQVIAMFERAAADIMATQVNDEGHHHHHH | soluble

Source: the DeepSol protein solubility set
